Source: US20210196828A1

Experiments:
[1] = biological target: manZ component of the mannose permease complex (E. coli) (UniProt P69805)
[2] = biological target: manY component of the mannose permease complex (E. coli) (UniProt P69801)

## Lambda gpH (Uniprot P03736)
[1]
  apparent titer of packaged phagemids in MG1655 and KEIO manZ (log decrease in the apparent titer): 2
[2]
  apparent titer of packaged phagemids in MG1655 and KEIO manY (log decrease in the apparent titer): 2
